Measured values as given in patent US20230159603A1 (XILIO DEVELOPMENT, published 2023).

B1: recombinant human IL-12 (rhIL-12) control (ligand)
chain 1: IWELKKDVYVVELDWYPDAPGEMVVLTCDTPEEDGITWTLDQSSEVLGSGKTLTIQVKEFGDAGQYTCHKGGEVLSHSLLLLHKKEDGIWSTDILKDQKEPKNKTFLRCEAKNYSGRFTCWWLTTISTDLTFSVKSSRGSSDPQGVTCGAATLSAERVRGDNKEYEYSVECQEDSACPAAEESLPIEVMVDAVHKLKYENYTSSFFIRDIIKPDPPKNLQLKPLKNSRQVEVSWEYPDTWSTPHSYFSLTFCVQVQGKSKREKKDRVFTDKTSATVICRKNASISVRAQDRYYSSSWSEWASVPCS
chain 2: RNLPVATPDPGMFPCLHHSQNLLRAVSNMLQKARQTLEFYPCTSEEIDHEDITKDKTSTVEACLPLELTKNESCLNSRETSFITNGSCLASRKTSFMMALCLSSIYEDLKMYQVEFKTMNAKLLMDPKRQIFLDQNMLAVIDELMQALNFNSETVPQKSSLEEPDFYKTKIKLCILLHAFRIRAVTIDRVMSYLNAS
notes: also called wild-type rhIL-12
B2: rhIL-12RB2-Fc (Fc fusion, human, UniProt Q99665 24-622, looked up, not shown: a dimerising Fc or GST)
chain: KIDACKRGDVTVKPSHVILLGSTVNITCSLKPRQGCFHYSRRNKLILYKFDRRINFHHGHSLNSQVTGLPLGTTLFVCKLACINSDEIQICGAEIFVGVAPEQPQNLSCIQKGEQGTVACTWERGRDTHLYTEYTLQLSGPKNLTWQKQCKDIYCDYLDFGINLTPESPESNFTAKVTAVNSLGSSSSLPSTFTFLDIVRPLPPWDIRIKFQKASVSRCTLYWRDEGLVLLNRLRYRPSNSRLWNMVNVTKAKGRHDLLDLKPFTEYEFQISSKLHLYKGSWSDWSESLRAQTPEEEPTGMLDVWYMKRHIDYSRQQISLFWKNLSVSEARGKILHYQVTLQELTGGKAMTQNITGHTSWTTVIPRTGNWAVAVSAANSKGSSLPTRINIMNLCEAGLLAPRQVSANSEGMDNILVTWQPPRKDPSAVQEYVVEWRELHPGGDTQVPLNWLRSRPYNVSALISENIKSYICYEIRVYALSGDQGGCSSILGNSKHKAPLSGPHINAITEEKGSILISWNSIPVQEQMGCLLHYRIYWKERDSNSQPQLCEIPYRVSQNSHPINSLQPRVTYVLWMTALTAAGESSHGNEREFCLQGKAN

Tests used:
rhIL-12RB1-Fc = rhIL-12RB1-Fc (human, UniProt P42701 24-545, limits assumed); assay: SPR, IL-12 receptor immobilised, IL-12 flowed, 25 C, FIGS. 34A-34D
Protocol: (§1) Sensor Chips were coated and immobilized with IL-12 receptors. Dilutions of IL-12 constructs were flowed over the chips with the immobilized IL-12 receptors to determine the on rate at 25 degrees C. At equilibrium (approximately 3-4 minutes), the flow buffer was changed to PBST, to determine the off rates over 6 minutes. Between each run the chip was regenerated. The tables represent the SPR data (FIGS. 34 and 35).

rhIL-12RB2-Fc = target: B2; assay: SPR, IL-12 receptor immobilised, IL-12 flowed, 25 C, FIGS. 35A-35D
Protocol: as §1

AK384 = target: T1, AK384; assay: SPR, IL-12 receptor immobilised, IL-12 construct flowed, 25 C, FIGS. 35A-35D
T1 construct: Masked IL-12 heterodimer, IL-12Rβ1 (24-237) mask; tested uncleaved
Protocol: as §1

B1: binds (rhIL-12RB1-Fc); binds (rhIL-12RB2-Fc).

B2: binds (AK384).
